Laboratory results reported in patent publication US8173131B2, “Compositions and methods for modulating RSV infection and immunity” (PerkinElmer Health Sciences, Inc., priority 2000, dated 2012).

B1: G glycoprotein: purified G glycoprotein isolated from RSV/A2-infected Vero cells (protein)
chain: MSKNKDQRTAKTLERTWDTLNHLLFISSCLYKLNLKSVAQITLSILAMIISTSLIIAAIIFIASANHKVTPTTAIIQDATSQIKNTTPTYLTQNPQLGISPSNPSEITSQITTILASTTPGVKSTLQSTTVKTKNTTTTQTQPSKPTTKQRQNKPPSKPNNDFHFEVFNFVPCSICSNNPTCWAICKRIPNKKPGKKTTTKPTKKPTLKTTKKDPKPQTTKSKEVPTTKPTEEPTINTTKTNIITTLLTSNTTGNPELTSQMETFHSTSSEGNPSPSQVSTTSEYPSQPSSPPNTPRQ

Tests used:
293 cells = experiment: G glycoprotein and Fkn binding to untransfected 293 control cells by flow cytometry; parameters: species or system human; conditions: for percent positive staining of 293 cells: 10 nM ligand, representative experiment, FIG. 1
Procedure: Purified G glycoprotein was examined for binding to 293-CX3CR1 cells^33. A pcDNA 3.1 plasmid containing the CX3CR1 gene and a neomycin resistance gene was used to stably transfect human embryonic kidney (HEK) cells. Neomycin resistance was used for selection and maintenance of plasmid transfection of human embryonic kidney cells.
All binding studies were done on ice and either G glycoprotein or human Fkn (R&D Diagnostics, Minneapolis, Minn.) were diluted between 1 nM-100 nM in PBS (GIBCO) containing 1% bovine serum albumin (Sigma) and incubated with the 293-CX3CR1 cells or 293 control cells for 30 min at 4° C. […] For inhibition studies, 100 pM-1 μM human Fkn or G glycoprotein was preincubated with the cells for 30 min at 4° C. Without washing, 100 pM of either Fkn or G glycoprotein was added and incubated for 30 min at 4° C. The cells were washed, blocked with FcγRIII blocking antibody (HB197) for 30 min on ice, washed and stained as appropriate with either an anti-G glycoprotein monoclonal antibody cocktail (132-5B, 132-5G, 130-2G, 232-IF) or a biotinylated anti-G glycoprotein monoclonal antibody cocktail (130-2G, 131-2G) or anti-Fkn monoclonal antibody (51637.11; R&D Diagnostics). Concentrations of 1 μg of anti-G glycoprotein monoclonal antibody (131-2G)^34, rabbit anti-CX3CR1 sera^33, and anti-CX3CR1 monoclonal antibody containing 10 μg/ml heparin were used in all experiments. […] Staining was detected with absorbed FITC-goat anti-mouse (H & L chain) monoclonal antibody (PharMingen, San Diego, Calif.) or streptavidin-PE (PharMingen) using flow cytometry (FACScan, Becton-Dickinson, Mountain View, Calif.). A 76 amino acid ^125I-Fkn polypeptide comprising the […] (NEN, Boston, Mass.) was used in radioligand studies^33. As a control, the void volume following purified G glycoprotein passaged over an anti-G glycoprotein antibody (130-2G) affinity column was examined by flow cytometry for binding to either 293 or 293-CX3CR1 cells.
The receptor for Fkn, CX3CR1, was previously identified and characterized using anti-CX3CR1 rabbit antiserum and CX3CR1-transfected human embryonic kidney cells (293-CX3CR1 cells)^33.

[1] = test system: murine spleen leukocyte cell migration; experiment: Murine leukocyte chemotaxis in modified Boyden chamber; assay type: cell-based, mouse
Procedure: The chemotactic index was determined from the fold increase of murine spleen leukocyte cell migration toward the chemoattractant (e.g., Fkn or G glycoprotein) over the leukocyte migration toward media alone control, using modified Boyden chambers. Fkn, G glycoprotein, recombinant polyhistidine-tagged G glycoprotein (GHIS), anti-CX3CR1 monoclonal antibody (2A9-1), normal rabbit serum, rabbit anti-CX3CR1 serum, anti-G glycoprotein monoclonal antibody (131-2G) or anti-F glycoprotein monoclonal antibody (131-2A) were added to the upper chamber to examine antagonism of cell migration toward the chemoattractant in the lower chamber.
Leukocyte chemotaxis toward Fkn, G glycoprotein or media was measured according to Boyden^46 using 24 well plates (Costar, Cambridge, Mass.) with 3 μm filter inserts (Nalge Nunc, Rochester, N.Y.) coated with an extracellular matrix consisting primarily of laminin, collagen IV and proteoglycan (ECM, Sigma, St. Louis, Mo.). For murine studies, 5×10^5 naïve spleen cells was placed in the upper chamber and 10 nM mouse Fkn or 10 nM G glycoprotein, anti-CX3CR1 antibody, anti-G or anti-F glycoprotein monoclonal antibody, normal rabbit sera, rabbit anti-CCR5 sera or media was placed in the upper or lower chamber as appropriate. For human studies, 10^6 density gradient purified (Lymphocyte Separation Media, ICN Biomedicals, Aurora, Ohio, per manufacture instructions) peripheral blood mononuclear cells (PBMC) from normal human adult donors was placed in the upper chamber in the presence or absence of 1 μM peptide RT33, and 10 nM human Fkn, 10 nM G glycoprotein or 1 μM peptide RT33 placed in the lower chambers. The modified Boyden chamber was incubated at 37° C. for 4-6 h, the inserts removed, washed in PBS (GIBCO BRL), fixed in 3% gluteraldehyde and stained in formalin-buffered 0.01% crystal violet. Chemotactic cells were visualized with a microscope. Chemotactic cells were analyzed for CX3CR1 expression by collecting cells from the upper or lower modified Boyden chambers, antibody staining (2A9-1) and flow cytometry as described. Leucocytes chemotactic toward G or Fkn expressed a higher percent of CX3CR1 in the lower (25-30%) versus upper chamber (7-11%).

[2] = substance added to upper chamber as antagonist

Molecule	percent positive staining of 293 cells (293 cells) [%]	chemotactic index toward G glycoprotein [1, 2]	inhibition of leukocyte chemotaxis toward G glycoprotein ([1]; substance in upper chamber)	binding to 293 cells (293 cells; wheat germ lectin column fraction (G, F glycoprotein) or purified recombinant polyhistidine-tagged G glycoprotein) [%]	chemotactic index toward Fkn [1, 2]	inhibition of leukocyte chemotaxis toward Fkn ([1]; substance in upper chamber)
Fkn: CX3C chemokine fractalkine (R&D), ligand of CX3CR1 [reference compound]	8	1.2	approximately 75%	–	–	–
B1	16	–	–	18	3.2	approximately 37%
